Reference: patent JP2003513027A
pKd: −log10 of the molar value. Where “and” joins values, the source holds several entries; their conditions need not be identical. Equal values may be shown once.

Columns and labels:
[1] = target: Cu-OxLDL (copper-oxidised low density lipoprotein); assay: cell-based or functional assay
[2] = target: MDA-LDL (malondialdehyde-modified low density lipoprotein); assay: direct binding and competition assays with affinity-purified Fab
[3] = target: Cu-OxLDL (copper-oxidised low density lipoprotein); assay: 125I-Cu-OxLDL binding to mouse peritoneal macrophages on ice, IK17 as competitor, % of control without competitor

degradation of 125I-Cu-OxLDL by macrophages (TCA-soluble 125I in the medium), % inhibition [1]: 50% and 65%
pKd [2]: 7.43
% inhibition of the binding of 125I-Cu-OxLDL to macrophages [3]: 70% and 85%
Substance: IK17 human monoclonal IgG Fab
